Results on six sequences are retold here after the DeepSol protein solubility set.

The data set is described as follows: soluble on expression in E. coli; label from the status in PepcDB or PDB records.
With “MELFKDIKNLGKLVRLERIFNRESEKTVIVPMDHGVSNGPIKGLIDIRKTVNDVAEGGANAVLLHKGIVRHGHRGYGKDVGLIIHLSGGTAISPNPLKKVIVTTVEEAIRMGADAVSIHVNVGSDEDWEAYRDLGMIAETCEYWGMPLIAMMYPRGKHIQNERDPELVAHAARLGAELGADIVKTSYTGDIDSFRDVVKGCPAPVVVAGGPKTNTDEEFLQMIKDAMEAGAAGVAVGRNIFQHDDVVGITRAVCKIVHENADVEEALKEIRKK”, the “soluble on expression in E. coli” value was “soluble”.

Turning to “QEGTLERSDWRKFFSEFQAKGTIVVADERQADRAMLVFDPVRSKKRYSPASTFKIPHTLFALDAGAVRDEFQIFRWDGVNRGFAGHNQDQDLRSAMRNSTVWVYELFAKEIGDDKARRYLKKIDYGNADPSTSNGDYWIEGSLAISAQEQIAFLRKLYRNELPFRVEHQRLVKDLMIVEAGRNWILRAKTGWEGRMGWWVGWVEWPTGSVFFALNIDTPNRMDDLFKREAIVRAILRSIEALPPNPAVNSDAAR”, the “soluble on expression in E. coli” value was “soluble”. As for “MSSNECFKCGRSGHWARECPTGGGRGRGMRSRGRGGFTSDRGFQFVSSSLPDICYRCGESGHLAKDCDLQEDACYNCGRGGHIAKDCKEPKREREQCCYNCGKPGHLARDCDHADEQKCYSCGEFGHIQKDCTKVKCYRCGETGHVAINCSKTSEVNCYRCGESGHLARECTIEATA”, the “soluble on expression in E. coli” value is recorded as “soluble”. As for “STGMRPRGAAFAAGPPGDLHLGTAIGFAGAIWRSRSPAMSTLLDIKSSVLRQVQVCPSFRRRTEQDPGSASADPQEPATGAWKPGDGVEFFAHMRLMLKKGEGRQGLPCLEVPLRSGSPAPPEPVDPSLGLRALAPEEVEMLYEEALYTVLYRAGTMGPDQVDDEEALLSYLQQVFGTSLEEHTEAIERVRKAKAPTYALKVSVMRAKNLLAKDPNGFSDPYCMLGILPASDATREPRAQKEQRFGFRKGSKRGGPLPAKCIQVTEVKSSTLNPVWKEHFLFEIEDVSTDQLHLDIWDHDDDVSLVEACRKLNEVIGLKGMGRYFKQIVKSARANGTAGPTEDHTDDFLGCLNIPVREVPVAGVDRWFKLEPRSSASRVQGHCHLVLKLITTQRDTAMSQRGRSGFLSHLLLLSHLLRLEHSAEEPNSSSWRGELSTPAATILCLHGAQSNLSPLQLAVLHWQVSSRHHQTCTLDYSYLLGLLEDMQAHWEEAPSLPQEQEESLADSLSAFSEFGLQLLRQLRDYFPATNSTAVHRLELLLKCLGKLQLFQPSFEICPFESELNMDIAAALKRGNREWYDRILNDKSPREQPGPQRLPGLVVLADAVYDDLQFCYSVYASLFHSILNVDVFTLTFRQLERLVAEEAWVLTEELSPKMTLEVASGLFELYLTLADLQRFWDSIPGRDSRSLALAGIHAPFLPAVKLWFQVLRDQAKWRLQGAVDMDTLEPVDASSRHSSSAATAGLCLSHIQELWVRLAWPDPAQAQGLGTQLGQDVCEATLFYTELLRKKVDTQPGAAGEAVSEALCVVLNNVELVRKAAGQALKGLAWPEGATGPEGVLPRPLLSCTQALDDDLQREAHTVTAHLTSKMVGDIRKYVQHISLSPDSIQNDEAVAPLMKYLDEKLALLNASLVKGNLSRVLEALWELLLQAILQALGANRDVSADFYSRFHFTLEALVSFFHAEGQGLPLESLRDGSYKRLKEELRLHKCSTRECIEQFYLDKLKQRTLEQNRFGRLSVRCHYEAAEQRLAVEVLHAADLLPLDANGLSDPFVIVELGPPHLFPLVRSQRTQVKTRTLHPVYDELFYFSVPAEACRRRAACVLFTVMDHDWLSTNDFAGEAALGLGGVTGVARPQVGGGARAGQPVTLHLCRPRAQVRSALRRLEGRTSKEAQEFVKKLKELEKCMEADP”, the “soluble on expression in E. coli” value is “soluble”.

Turning to “MAKARAIVITGNGTNCEMEAAHACRLGGFDETVIAHISDILTGEIRLDDFHFLNLTGGFLDGDDLGSAKAQANRFRYARVDDLEEHLIDQIIRFIDAGKLILGVCNGFQLMTKMGLLPAVDGAYLAQTATLTFNACGRFQDRWVYLKVDQASPSIYTKGVETGLYLPIRHGEGKFVVDSPATLAAIEAKHLAVFTYSDETYSAPTMEFPLNPNGSVNAIAAVCNESGRLMGMMPHPEAFLHRTNHPRWTREDLPEEGDGLVLFRNAADYAKANLLLEHHHHHH”, the “soluble on expression in E. coli” value is “not soluble”. Take “MSKIEQIITEIEEYIDNCKFQPLSTSKIIVNKDEIDELLAELRLRTPDEIKKYQKIIANKDAILNDAKERAEAMVSEATAHINQLVSEHEIMQKAYEEANQIIEQAQAEAQGILDSATTEANDLRTRAMQYTDDILANVQSILSTGMDSFESAQNTMMTSLNSSLNVVVESRKELGGAEDEESVENGEDDNLSVDLL”: the “soluble on expression in E. coli” value is recorded as “not soluble”.
